Experimental findings from article PMC11518995 are described below.

This assay addresses mTOR with the cancer-associated 1455-EWED-1458 duplication, as the mTOR subunit of mTORC1_EWEDdup (human) (UniProt P42345). In words: cryo-EM structure; mTORC1_EWEDdup co-expressed and purified as a complex; 1 uM with 20 uM 4EBP1 and 1 mM AMPPNP, cross-linked with 0.2 mM BS3 and 0.03% glutaraldehyde, glycerol gradient, Superose 6; 50 mM HEPES pH 7.5, 250 mM NaCl, 5 mM MgCl2, 1 mM TCEP.

“mTOR with the cancer-associated 1455-EWED-1458 duplication, as the mTOR subunit of mTORC1_EWEDdup, P42345 1-2549” came in with a stoichiometry N of 2.
